“Also recorded” adds a separate entry of the source.
Key:
Assay type in all cases: binding
[1] = test system: immunocomplex of CCPH variant and biotinylated anti-Adda mAb; test: Quantitative lateral flow test with streptavidin up-converting nanoparticles
[2] = test system: immunocomplexes of CCPH variants and anti-Adda mAb; test: Screening and cross-reactivity studies of anti-IC scFv-AP binders, specificity class
[3] = test system: immunocomplexes of MC-XZ and Nod-R with anti-Adda mAb; test: Cross-reactivity profile of anti-IC binders by single-step non-competitive assay (FIG. 5); conditions: toxin 0.1 to 60 μg/L
[4] = test system: CCPH in unknown water samples, immunocomplex with anti-Adda mAb; test: Anti-IC immunoassay profiling of blinded water samples (Abraxis proficiency testing); conditions: sample MC-TK8, MC-LR + MC-RR + MC-YR, 4 + 1 + 1 μg/l

Row | Molecule | Specificity of anti-IC antibody (CCPH immunocomplexes recognized) [2] | further results
1 | C/C=C1/C(=O)N[C@@H](C(=O)O)[C@H](C)C(=O)N[C@@H](CCCNC(=N)N)C(=O)N[C@@H](/C=C/C(C)=C/[C@H](C)[C@H](Cc2ccccc2)OC)[C@H](C)C(=O)N[C@@H](C(=O)O)CCC(=O)N1C [Nodularin, reference compound] | – | Signal-to-background ratio [1]: 38
2 | SA51D12: variant-specific anti-IC antibody, MC-LR (antibody, V domains shown, Clone SA51D12; DOMAIN (31)..(35) CDR1; DOMAIN (50)..(66) CDR2; DOMAIN (99)..(111) CDR3; DOMAIN (24)..(35) CDR1; DOMAIN (51)..(57) CDR2; DOMAIN (90)..(98) CDR3) VH: EVQLLESGGGLVQPGGSLRLSCAASGFTFSSDVMHWVRQAPGKGLEWVSVISGYDGYTRYADSVKGRFTISRDNSKNTLYLQMNSLRAEDTAVYYCARGVPYLYGAYSFDYWGQGTLVTVSS VL: EIVLTQSPGTLSLSPGERATLSCRASQSVSSSNLAWYQQKPGQAPRLLIYGASSRATGVPDRFSGSGSGTDFTLTISRLEPEDFAVYYCQQSSTPWTFGQGTKVEIKRT | recognize immunocomplexes comprising MC-LR; also recorded: MC-LR and MC-LZ specific | –
3 | SA55D1: MC-LZ subgroup-specific anti-IC binder (antibody, V domains shown, Clone SA55D1; DOMAIN (31)..(35) CDR1; DOMAIN (50)..(66) CDR2; DOMAIN (99)..(110) CDR3; DOMAIN (24)..(35) CDR1; DOMAIN (51)..(57) CDR2; DOMAIN (90)..(98) CDR3) VH: EVQLLESGGGLVQPGGSLRLSCAASGFTFSSDVMHWVRQAPGKGLEWVSVISPYDGYTRYADSVKGRFTISRDNSKNTLYLQMNSLRAEDTAVYYCARHKGGYRRAYMDYWGQGTLVTVSS VL: EIVLTQSPGTLSLSPGERATLSCRASQSVSSSALAWYQQKPGQAPRLLIYGASSRATGVPDRFSGSGSGTDFTLTISRLEPEDFAVYYCQQSYSYPWTFGQGTKVEIKRT | MC-LZ subgroup-specific | Specificity (cross-reactive pattern) [3]: specific towards MC-XZ, where X=L (Leu)
4 | SA56E7: variant-specific anti-IC antibody, MC-LR (antibody, V domains shown, Clone SA56E7; DOMAIN (31)..(35) CDR1; DOMAIN (50)..(66) CDR2; DOMAIN (99)..(111) CDR3; DOMAIN (24)..(35) CDR1; DOMAIN (51)..(57) CDR2; DOMAIN (90)..(98) CDR3) VH: EVQLLESGGGLVQPGGSLRLSCAASGFTFSRYYMHWVRQAPGKGLEWVSYIWPVDGETDYADSVKGRFTISRDNSKNTLYLQMNSLRAEDTAVYYCARYVYGNSVGRVFDYWGQGTLVTVSS VL: EIVLTQSPGTLSLSPGERATLSCRASQSVSSSNLAWYQQKPGQAPRLLIYGASSRATGVPDRFSGSGSGTDFTLTISRLEPEDFAVYYCQQSYSYPWTFGQGTKVEIKRT | recognize immunocomplexes comprising MC-LR | –
5 | SA57D4: subgroup-specific anti-IC antibody (antibody, V domains shown, Clone SA57D4; DOMAIN (31)..(35) CDR1; DOMAIN (50)..(66) CDR2; DOMAIN (99)..(106) CDR3; DOMAIN (24)..(35) CDR1; DOMAIN (51)..(57) CDR2; DOMAIN (90)..(98) CDR3) VH: EVQLLESGGGLVQPGGSLRLSCAASGFTFSGYGMHWVRQAPGKGLEWVSAISDLNGSTYYADSVKGRFTISRDNSKNTLYLQMNSLRAEDTAVYYCARNGWGDMDLWGQGTLVTVSS VL: EIVLTQSPGTLSLSPGERATLSCRASQSVSSSALAWYQQKPGQAPRLLIYGASSRATGVPDRFSGSGSGTDFTLTISRLEPEDFAVYYCQQSYSLPWTFGQGTKVEIKRT | subgroup-specific | –
6 | SA44E11: anti-IC antibody recognizing immunocomplexes comprising MC-RR (antibody, V domains shown, Clone SA44E11; DOMAIN (31)..(35) CDR1; DOMAIN (50)..(66) CDR2; DOMAIN (99)..(105) CDR3; DOMAIN (24)..(35) CDR1; DOMAIN (51)..(57) CDR2; DOMAIN (90)..(98) CDR3) VH: EVQLLESGGGLVQPGGSLRLSCAASGFTFSDYYMHWVRQAPGKGLEWVSEISTYNGYTDYADSVKGRFTISRDNSKNTLYLQMNSLRAEDTAVYYCARGGEPGDDWGQGTLVTVSS VL: EIVLTQSPGTLSLSPGERATLSCRASQSVSSSALAWYQQKPGQAPRLLIYGASSRATGVPDRFSGSGSGTDFTLTISRLEPEDFAVYYCQQYSSLPWTFGQGTKVEIKRT | recognize immunocomplexes comprising MC-RR | –
7 | SA32F1: variant-specific anti-IC antibody, Nod-R (antibody, V domains shown, Clone SA32F1; DOMAIN (31)..(35) CDR1; DOMAIN (50)..(66) CDR2; DOMAIN (99)..(110) CDR3; DOMAIN (24)..(35) CDR1; DOMAIN (51)..(57) CDR2; DOMAIN (90)..(98) CDR3) VH: EVQLLESGGGLVQPGGSLRLSCAASGFTFSNYYMHWVRQAPGKGFEWVSSIITNGGETDYADSVKGRFTISRDNSKNTLYLQMNSLRAEDTAVYYCARLPVTRPYYAVFDYWGQGTLVTVSS VL: EIVLTQSPGTLSLSPGERATLSCRASQSVSSSALAWYQQKPGQAPRLLIYGASSRATGVPDRFSGSGSGTDFTLTISRLEPEDFAVYYCQQSSSYPWTFGQGTKVEIKRT | recognize immunocomplexes comprising Nod-R | –
8 | SA58A12: XR subgroup-specific anti-IC antibody (antibody, V domains shown, Clone SA58A12; DOMAIN (31)..(35) CDR1; DOMAIN (50)..(65) CDR2; DOMAIN (98)..(110) CDR3; DOMAIN (24)..(35) CDR1; DOMAIN (51)..(57) CDR2; DOMAIN (90)..(98) CDR3) VH: EVQLLESGGGLVQPGGSLRLSCAASGFTFSNYGMHWVRQAPGKGLEWVSEIWPNNGTTNYADSVKGRFTISRDNSKNTLYLQMNSLRAEDTAVYYCARESGQWWYGVFDYWGQGTLVTVSS VL: EIVLTQSPGTLSLSPGERATLSCRASQSVSSSNLAWYQQKPGQAPRLLIYGASSRATGVPDRFSGSGSGTDFTLTISRLEPEDFAVYYCQQSSSYPWTFGQGTKVEIKRT | specific for a subgroup XR | Specificity (cross-reactive pattern) [3]: specific towards MC-XZ where Z=R (Arg) and also towards Nod-R
9 | SA34G1: variant-specific anti-IC antibody, Nod-R (antibody, V domains shown, Clone SA34G1; DOMAIN (31)..(35) CDR1; DOMAIN (50)..(66) CDR2; DOMAIN (99)..(108) CDR3; DOMAIN (24)..(35) CDR1; DOMAIN (51)..(57) CDR2; DOMAIN (90)..(98) CDR3) VH: EVQLLESGGGLVQPGGSLRLSCAASGFTFSDYWMHWVRQAPGKGLEWVSEIIPYSGYTNYADSVKGRFTISRDNSKNTLYLQMNSLRAEDTAVYYCARETWGYPSFDYWGQGTLVTVSS VL: EIVLTQSPGTLSLSPGERATLSCRASQSVSSSNLAWYQQKPGQAPRLLIYGASSRATGVPDRFSGSGSGTDFTLTISRLEPEDFAVYYCQQSSSTPWTFGQGTKVEIKRT | recognize immunocomplexes comprising Nod-R | –
10 | SA56B8: variant-specific anti-IC antibody, MC-LR (antibody, V domains shown, Clone SA56B8; DOMAIN (31)..(35) CDR1; DOMAIN (50)..(66) CDR2; DOMAIN (99)..(106) CDR3; DOMAIN (24)..(35) CDR1; DOMAIN (51)..(57) CDR2; DOMAIN (90)..(98) CDR3) VH: EVQLLESGGGLVQPGGSLRLSCAASGFTFSDYWMHWVRQAPGKGLEWVSYINPYGGYTDYADSVKGRFTISRDNSKNTLYLQMNSLRAEDTAVYYCARYVRRHFDYWGQGTLVTVSS VL: EIVLTQSPGTLSLSPGERATLSCRASQSVSSSYLAWYQQKPGQAPRLLIYGASSRATGVPDRFSGSGSGTDFTLTISRLEPEDFAVYYCQQSSSYPWTFGQGTKVEIKRT | recognize immunocomplexes comprising MC-LR; also recorded: MC-LR specific | Signal (%) with MC-LW ([3]; MC-LW): below 20%; Specificity (cross-reactive pattern) [3]: MC-LR and MC-dmLR specific
11 | SA41B5: variant-specific anti-IC antibody, MC-RR (antibody, V domains shown, Clone SA41B5; DOMAIN (31)..(35) CDR1; DOMAIN (50)..(66) CDR2; DOMAIN (99)..(109) CDR3; DOMAIN (24)..(35) CDR1; DOMAIN (51)..(57) CDR2; DOMAIN (90)..(98) CDR3) VH: EVQLLESGGGLVQPGGSLRLSCAASGFTFSSDVMHWVRQAPGKGLEWVSVINPYDGSTYYADSVKGRFTISRDNSKNTLYLQMNSLRAEDTAVYYCARAVAGQGGYFDYWGQGTLVTVSS VL: EIVLTQSPGTLSLSPGERATLSCRASQSVSSSNLAWYQQKPGQAPRLLIYGASSRATGVPDRFSGSGSGTDFTLTISRLEPEDFAVYYCQQSSSLPWTFGQGTKVEIKRT | recognize immunocomplexes comprising MC-RR; also recorded: MC-RR specific | Specific anti-IC assay result [4]: positive

From US10808024B2, “Antibodies against immunocomplexes comprising cyanobacterial cyclic peptide hepatotoxins” (priority 2015, dated 2020)
